From US8071547B2, “Compositions of alpha-fetoprotein and inducers of apoptosis for the treatment of cancer” (Constab Pharmaceutical, Inc., priority 2006, dated 2011)
Read-outs that look alike come from different tables or passages of the source.

Legend:
[1] = in the fetus; cited from earlier work
cancer cells [2] = settings: literature; cited from earlier work
[3] = tested on: monoclonal antibody to HAFP; assay: Membrane EIA Alpha-fetoprotein test; format: binding; settings: compared to human AFP sample
Procedure: (§1) PAFP extracted by the methods detailed above was analyzed using two different immune-enzyme kits in order to detect the presence of PAFP in the extraction obtained from the methods detailed above. PAFP samples were compared to AFP isolated from human serum and amniotic fluid. Initially, samples were subjected to the membrane EIA Alpha-fetoprotein test (catalog #410-1, IND Diagnostic Inc., Vancouver, Canada) which incorporates a monoclonal antibody to HAFP. […] A second test kit incorporating a polyclonal antibody to HAFP (catalog number T-8456, AFP-EIA-BEST-Strip, Vector-BEST, Novosibirsk, Russia) was then used to assay the presence of PAFP in the extraction.

[4] = tested on: polyclonal antibody to HAFP; assay: AFP-EIA-BEST-Strip test; format: binding
Procedure: as §1

cancer cells [5] = assay: Comparison of AFP properties: anticancer activity (Table 1); settings: applicant's studies (Examples 4 to 8)
Description: The present invention involves the use of exogenous alpha-fetoprotein (AFP) acting as a carrier or transporter of apoptosis-inducing agents directly to cancer cells resulting in the apoptosis of the cancer cells. U.S. Pat. Nos. 6,630,445 and 6,534,479 describe the use of recombinant human AFP for conjugation with cytotoxic agents.
(NCBI Blast analysis is available on the world wide web at ncbi.nlm.nih.gov/blast/; Parker, M. H. et al., Protein Expression and Purification, 38:177-183, 2004).

B1: AFP: alpha-fetoprotein, major transport glycoprotein in the fetus (protein, UniProt P02771 19-609, looked up)
Alpha-fetoprotein: RTLHRNEYGIASILDSYQCTAEISLADLATIFFAQFVQEATYKEVSKMVKDALTAIEKPTGDEQSSGCLENQLPAFLEELCHEKEILEKYGHSDCCSQSEEGRHNCFLAHKKPTPASIPLFQVPEPVTSCEAYEEDRETFMNKFIYEIARRHPFLYAPTILLWAARYDKIIPSCCKAENAVECFQTKAATVTKELRESSLLNQHACAVMKNFGTRTFQAITVTKLSQKFTKVNFTEIQKLVLDVAHVHEHCCRGDVLDCLQDGEKIMSYICSQQDTLSNKITECCKLTTLERGQCIIHAENDEKPEGLSPNLNRFLGDRDFNQFSSGEKNIFLASFVHEYSRRHPQLAVSVILRVAKGYQELLEKCFQTENPLECQDKGEEELQKYIQESQALAKRSCGLFQKLGEYYLQNAFLVAYTKKAPQLTSSELMAITRKMAATAATCCQLSEDKLLACGEGAADIIIGHLCIRHEMTPVNPGVGQCCTSSYANRRPCFSSLVVDETYVPPAFSDDKFIFHKDLCQAQGVALQTMKQEFLINLVKQKPQITEEQLEAVIADFSGLLEKCCQGQEQEVCFAEEGQKLISKTRAALGV
- halflife [1]: 72 to 120 h

B2: HAFP: human alpha-fetoprotein (protein, UniProt P02771 19-609, looked up)
Alpha-fetoprotein: B1 Alpha-fetoprotein
- Anticancer activity (AFP-mediated delivery of apoptosis-inducing agent bound to cancer cells) (cancer cells [2]): Yes

B3: PAFP: porcine alpha-fetoprotein, butanol-extracted from blood and amniotic fluid of embryos of 3 to 14 weeks gestation (protein, UniProt Q8MJ76 19-610, looked up)
Alpha-fetoprotein: RTMHENAYGIASILDSSQCSAEMNLVDLATIFFAQFVQEATYKEVNQMVKDVLTVIEKSTGSEQPAGCLENQVSVFLEEICHEEEIPEKYGLSHCCSQSGEERHNCFLARKKAAPASIPPFQVPEPVTSCKAYEENRELFMTRYIYEIARRHPFLYAPTILSLAAQYDKIIPPCCKAENAVECFQTKAASITKELRESSLLNQHMCTVMRQFGARTFRAITVTKLSQKFPKANFTEIQKLVLDVAHIHEECCRGNVLECLQDAERVVSYVCSQQDTLSSKIAECCKLPTTLELGQCIIHAENDDKPEGLSPNLNRFLGERDFNQLSSREKDLSMARFTYEYSRRHPKLAVPVILRVAKGYQELLEKCSQSENPLECQDKGEEELEKYIQESQALAKRSCGLFQKLGEYYLQNAFLVAYTKKAPQLTPPELMALTRKMATTGAACCHLSEDRQLACGEGAADLIIGQLCIRHEEMPINPGVGQCCTSSYANRRPCFSSLVLDETYVPPPFSDDKFIFHKDLCQAQGVALQTMKQQFLINLVKQKPQITEEQLEAVIADFSGLLEKCCQGQEQEVCFAEEGPALISKTRASLGV
- Reaction with EIA Alpha-fetoprotein test kit [3]: did not produce a reaction
- Reaction with AFP-EIA-BEST-Strip kit [4]: positive reaction
- Anticancer activity (AFP-mediated delivery of apoptosis-inducing agent bound to cancer cells) (cancer cells [5]): Yes
